By IC50 is commonly meant the concentration that gives 50% inhibition. Low values mean higher potency, high ones lower potency.

Assay [1] deals with human TGFβ2, mature receptor-binding domain (human).
Assay [2] addresses human TGFβ3, mature dimeric form (human) (UniProt P10600).
Assay [3] concerns the target human TGFβ1, mature receptor-binding domain (human) (UniProt P01137).
The target in assay [4] is human TGFβ3, mature dimeric form (human) (UniProt P10600). This is another data set of the same source.
Sequence of human TGFβ3, mature dimeric form (human) (P10600 301-412): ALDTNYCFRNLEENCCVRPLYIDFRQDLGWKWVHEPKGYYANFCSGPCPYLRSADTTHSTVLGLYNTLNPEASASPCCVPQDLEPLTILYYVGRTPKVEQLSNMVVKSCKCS

Sequence of human TGFβ2, mature receptor-binding domain (human) (P09858 303-414 limits assumed): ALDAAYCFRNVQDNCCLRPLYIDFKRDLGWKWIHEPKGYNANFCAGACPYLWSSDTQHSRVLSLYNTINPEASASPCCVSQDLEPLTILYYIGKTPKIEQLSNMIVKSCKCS
Sequence of human TGFβ1, mature receptor-binding domain (human) (P01137 279-390 limits assumed): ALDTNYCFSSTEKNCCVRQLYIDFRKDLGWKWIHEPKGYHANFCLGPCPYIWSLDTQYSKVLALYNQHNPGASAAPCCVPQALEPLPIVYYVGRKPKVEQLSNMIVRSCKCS

B1: Fc-LAP3 (Fc fusion, not shown: a dimerising Fc or GST)
chain: LSTCTTLDFGHIKKKRVEAIRGQILSKLRLTSPPEPTVMTHVPYQVLALYNSTRELLEEMHGEREEGCTQENTESEYYAKEIHKFDMIQGLAEHNELAVCPKGITSKVFRFNVSSVEKNRTNLFRAEFRVLRVPNPSSKRNEQRIELFQILRPDEHIAKQRYIGGKNLPTRGTAEWLSFDVTDTVREWLLRRESNLGLEISIHCPCHTFQPNGDILENIHEVMEIKFKGVDNEDDHGRGDLGRLKKQKDHHNPHLILMMIPPHRLDNPGQGGQRKKR
Take B1: the results for the IC50 in assay [1] and in assay [2] were 12.4 µM and 2.92 µM, respectively.

B2: Fc-LAP2 (Fc fusion, not shown: a dimerising Fc or GST)
chain: SLSTCSTLDMDQFMRKRIEAIRGQILSKLKLTSPPEDYPEPEEVPPEVISIYNSTRDLLQEKASRRAAACERERSDEEYYAKEVYKIDMPPFFPSENAIPPTFYRPYFRIVRFDVSAMEKNASNLVKAEFRVFRLQNPKARVPEQRIELYQILKSKDLTSPTQRYIDSKVVKTRAEGEWLSFDVTDAVHEWLHHKDRNLGFKISLHCPCCTFVPSNNYIIPNKSEELEARFAGIDGTSTYTSGDQKTIKSTRKKNSGKTPHLLLMLLPSYRLESQQTNRRKKR
For the molecule B2, the figures for the IC50 in assay [3], in assay [1] and in assay [2] were 10.1 µM, 0.548 µM and 0.525 µM, respectively. Also, the IC50 (read off the curve) in assay [4] is 0.0006 µM.

These data come from patent US20210301005A1.
